Biological target: human Rab7 Q67L (residues 2–195), GTP-loaded (human) (UniProt P51149)
Test: crystal structure; purified PDZD8 CC and Rab7 Q67L (1 mM GTP) mixed 1:1 at total 10 mg/ml, incubated 1 h at room temperature; crystals in 0.1 M Tris-HCl pH 8.0, 25% PEG 1000, 0.1 M NaCl; space group P6(5), 2.1 Å

human Rab7 Q67L (residues 2–195), GTP-loaded (human), sequence (P51149 2-195 Q67L): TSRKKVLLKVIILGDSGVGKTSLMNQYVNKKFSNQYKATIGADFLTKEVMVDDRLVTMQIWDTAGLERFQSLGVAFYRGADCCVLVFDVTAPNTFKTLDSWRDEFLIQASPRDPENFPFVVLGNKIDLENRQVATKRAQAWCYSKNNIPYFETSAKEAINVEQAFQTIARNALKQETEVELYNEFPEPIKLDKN
human PDZD8 C-terminal coiled-coil (CC) domain, residues 994–1123 (crystallisation construct), sequence (Q8NEN9 994-1123): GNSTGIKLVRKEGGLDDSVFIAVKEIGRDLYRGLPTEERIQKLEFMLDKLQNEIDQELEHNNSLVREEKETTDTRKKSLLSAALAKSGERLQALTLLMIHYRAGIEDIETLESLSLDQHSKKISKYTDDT

stoichiometry N (Rab7 per PDZD8 CC): 2
Substance: human PDZD8 C-terminal coiled-coil (CC) domain, residues 994–1123 (crystallisation construct) (from UniProt Q8NEN9 994-1123) (domain or fragment)

Source: article PMC8458453
